The data set can be described thus: label from the status in PepcDB records.

Drawing on a protein production outcome set (Wang et al. 2014), this text covers protein production for 17 sequences.

As to “MKWILAVGLLSCSVAMAQQQSDILSVSASANAENAALAFDRNVKTMWTIPSQALKAEQWLMFTIQQPGDVCELDLQMQGINKNELKEVLDIFVTYDPMNLGTPVNYRIEGSDKQMKVKFTPKYGAHVKLNFKSGKLDKPFSLKEISVLVAEKVLTDSQGKVTDRRYMDASLPVEERVESLLAVMTPEDKMELIREGWGIPGIPHLYVPPITKVEAVHGFSYGSGATIFPQALAMGATWNRKLTEEVAMVIGDETVAANTKQAWSPVLDVAQDARWGRCEETFGEDPVLVSQIGGAWIKGYQSRGLFTTPKHFGGHGAPLGGRDSHDIGLSEREMREIHLVPFRHAIRNYDCQSLMMAYSDYMGVPVAKSKELLQQILRQEWGFNGFIVSDCGAIGNLTARKHYTAKDKIEAANQALAAGIATNCGDTYNNKEVIQAAKDGRINMEDLDNVCRTMLGTMFRNELFEKNPCKPLDWKKIYPGWNSDSHKEMARQAARESIVMLENKDNLLPLSKTLRTIAVLGPGADDLQPGDYTPKLLPGQLKSVLTGIKGAVGKQTKVLYEQGCDFTNPDETNIPKAVKAASQSDVVIMVLGDCSTSEATNDVRKTCGENNDWATLILPGKQQELLEAVCATGKPVILILQAGRPYDILKASEMCKAILVNWLPGQEGGPAMADVLFGDYNPAGRLPMTFPRHVGQLPLYYNFKTSGRRYEYVDMEYYPLYRFGFGLSYTSFEYSNLKIQEKANGNVEVQATVKNVGSRAGDEVAQLYVTDMYASVKTRVMELKDFARIHLQPGESKTVSFEMTPYDISLLNDRMDRVVEKGEFKIMVGGMSPDYVAKNEIKHSVGYSDNKKGVTGMLNYTHEFGANFDLAVSKVEENLVKNQKTVWVSVKNTGTLMDIGKVEMFVDGKKVGDAVHYELGAGEEKLIPFKLAKENKQPVAFTTKYKMVSM”, the protein production result is listed as “failed”.

Consider “MKWLKHFQSLHTKLVIVYVLLIIIGMQIIGLYFTNSLEKELTQTFKNNISQYAKQIEINIEKVYDEDNAINAQKEVQNLLNEYANRQEIEEIRFIDKDQIIMATSKQSTRSLINQKANDNSIQKALSLGEINSHTVLKDYGNGKQRVWVYNLPVKTSNDGTIGDVYIEADINDVYNQLSNINQIFIVGTGISLLITVILGFFIARTITKPITDMRNQTVEMSKGNYTQRVKIYGNDEIGELALAFNNLSKRVQEAQANTESEKRRLDSVITHMSDGIIATDRRGRVRIVNDMALTMMGTMKEDIIGDHMLKVLKLEEDFSLDEIQENNDSFLLDINENEGIIARVNFSTIVQETGFVTGYIAVLHDVTEQQQVERERREFVANVSHELRTPLTSMNSYIEALESGAWKDGELAPQFLSVTREETERMIRLVNDLLQLSKMDNESEQITKEIVDFNMFINKIINRHEMSAKDTTFVREVPTETIFTEIDPDKMTQVFDNVITNAMKYSRGDKRVEFHVKQNALYNRMTIRVKDNGIGIPINKVDKIFDRFYRVDKARTRKMGGTGLGLAISKEIVEAHNGRIWANSVEGQGTSIFITLPCEVLEDGDWDAE”, for which the protein production entry was “failed”.

As for “MKWPWWPVCVPLSKRLTLPLPSTANPVVQPSRLALACANRLFEAADNRERFLQALMTPPAYPATVLWCGEPAAALPFAALPPLPWQPPWVSRFVAGSPTGQHPLHAAGAYYCLDSSSVFAAVPLLTLPQEPSLVIDVCAAPGGKSLFAWRSLHPRYLICNETIGKRVGKLIGNLKRCRVHPVGVTSWDSEVLAAEFQGTADVVIVDAPCSGQSLLAKGQKAEGCFHPLTIRHNQRRQKRILAAATTLVRPGGWLLYSTCTFSQDENEDVAAWLMAKFPHLLPQPVPALAAYQSHLAAFPCYRLWPHQGEGAGAFTILWQHQGLEHHHHHH”, the protein production result is “not failed”.

As to “MKWTTANTKHVNYTAKHELYVGTHTGSFKHLVPASEKTPYGQSNLSDLCALDKDSRVTSLAFGNDDQTEILLGRAKDAVEIHSFTEKGHSRNTVSFNAAPIVGLARYNDKLIAGIGNGEIQSLELEANDESEPVVIATGDQMDHLRQCAQVKSIVATGGKERQNNLKVYDLNADGKQIFTSKNLPNDYLQLEVPVWDSDIGFVDGPSVLATCSRTGYVRIYDTRKQRRPVACFASEEHGMSFTTLVAKGNFIYTGTTMGALKAFDTRRMKTHVHTYKGFTGGISDLHLDATGRFLSSASLDRYVRIHDSETTVLLYQCYVKSKATKILIRPFENEARVTEEPEEVADLQMDRNVSENKSVNATSVDNEYEDMFDQMPTVGDSDNESEEEMSNIKLSKADLKRRSSEKSLKNKKKKVVIS”, the protein production result is given as “failed”. Consider “MKYTYKQIWLINFPVMMSILMEQLINITDAVFLGHVGEIELGASALAGIYYLAIYMLGFGFSIGLQVMIARRNGEQHYKETGRTFFQGLYFLMVMAIMLCLLIHLVSPFILQQLITSDEIYQAVIRYLNWRSFGLLFSFPFLAFRAFLVGVTNTKLLSGAALTAVCINIPFNYLLIFKLDMGISGAAMASSIAEFGAFLILLLYMCKTVDKKKYGLSAVYDGRLLMKLLQLSVWSMLHAFISVAPWFLFFVAIEHLGKTELAISNITRSVSTLFFVIVNSFASTTGSLVSNLIGGGQGKELFPVCRKVLRLGYVVGLPLILTALWGNQWIIGFYTNNDYLVKLAFWPFIVMLLNYVFALPGYVYINAVTGTGKTRLAFVFQLVTILIYLIYLYLLSECFHASLTVYMTAEYLFVILLGIQSILYLKRKSKQNMYFCTFND”, for which the protein production entry was “failed”.

“MLAGGAARRLGGADKPGLRVGGRPLLDRVLAACAGARRTVVVADPRPTARPVTWAREDPPGGGPLAALAAGLRHTTAEYVLVASADLPFLAGPTVGRLLSALAAGDADGVLLTDADGRDQPLVAAYRAPALRRELAALARNRAGRGERADGAQLTGLPLRRLTGALRLTRVPDAVAAFDCDTWDDLATARARIREHGHVLDEWISAAKDELGIDLDVDTGILLDLARDAAHGVARPAAPLTTFLVGYAAGRAGGGPEAVAETARKAAALAQRWAEEAADTGSAPARGKPDVAPDATPDTRPDA”: the protein production result is on record as “failed”. Regarding “MLAGGKMGDMKITRHIHACVEISQGNDRIIIDPGTFGAPDLCGATILVTHNHADHVDPELLKPGMTIYAPRSVAHSIPVECHIVEHGRNFTVGSLSVEVLGSEHAMLTHSMPIAENVGYLINGRVLHPGDTFQPIKDVELALVPVNGPWVKMLDVEGYLKKFPPKRFIGIHDGIVNDRGLAINKKFLTHLGETYGSEYSPLEEGESLEILEHHHHHH”, the protein production entry is “failed”. For “MLAGGSLPSLAPDLVRDLIATAADISLLVSQEGVVREVMANPHHPSFGQLSEWEGRPLEEVLTAESVAKFRLRSEGLEPGRGSVAVELNHIDPRSFEFPIRYILHRLPADRSILMLGRDLRPIAEVQQQLVAAQLAMERDYETQREMETRYRVVLDVSRDPMVLVSMSTGRIVDLNSAAGLLLGGVRQDLLGAAIAQEFEGRRRGEFMETMTNLAATESAAPVEVLARRSQKRLLVVPRVFRAAGERLLLCQIDPADATQPVGDELSENLARLYHEGVDGIVFSDADGTIRGANEAFLNMTDSSSLAAIRGRSIADFLARGSVDLRVLIDSVRRTGQLRLYATRLTTDFAGQIAAEISATWLDDRERPLLVLVVRDTSRADTMRRPVPATGVIDEPARNVMELVGNSTLKDIVAETTDVVEKMCIETALELTRNNRVAAAEMLSLSRQSLYVKLRKFGLLNKDE” the value was “failed”.

Regarding “MLALVKRNCLLYFRNRSGVVFSLLGALISFILYLVFLKDNIESSWSQIDNTNQLLDTWLIGGTLAITGITTTLSNLSQWTKDKESHVRQDLLITDLGYWPLSLSYIISAALVGFIMQAIMLTIMGTYFYFTDKVTLSWTVLLQLIFIMILNTLISTIINALIVNRIQSVDNLGKLATIFGAASGFLVGTYVPIGALPDTAQTIMKLTPGAYIASLFRQTLMSDTLKDNFSQANAREHFEKMMGIRLNWQNLLTNTDTYYIVIGILVAGVLIFCLQNALRKYQALI”, the protein production result is on record as “failed”. For “MLAQKNTNKKPFGNTLTNILCKDKKKKNLDPQISSLVSLVDNMDITQEKKDKIKNLSLKYINSRDVKEKNESINELQKYSNNEECKEQMDSYLMHLRMQNDIKCLKRKNLWNNIGINSITLSLIIIMIMIACMFAIYSTAQYIYVPASFLLIFIIYIVARYFPDMKIGFKKLKTKLNTFFQNKKQITK” the value was “failed”. Turning to “MLARAALILLFFGLLGDSGAGQGRDGNALFDRGRYVAAAETYRAGLDALDDTTGSVYTGLQNNLGLALHRQERLGAARAALRKARRAATTEAERVRVLFNAATVAAEMNDRTKALDRYRTVLLLDPTHEAARFNYEYLKRQAGGGAGSDPPTLEPSPFAQKLKERADALVARTQYTTAAALLRDGMQKDSTVRAYRDFVTRIEEIAQIARSDP”, the protein production result is recorded as “failed”.

In the case of “MLARVLILLMFSLCAWPARAHALTIYTEEWPPITFQRNGIADGMAVEVVREIQGRIHDNSPIEVVPWARGYKDLLTTPGVMLFTVGRSEAREKQMTLLGPIAVSQTVLLARKGEAAKLLALGAGIYQRPVGAYRGSIFADAASAAGFVEVDLAPTPQLTAQKMLMGRYDMWVEGGFVVASVLKDIHQPANAVEVVRVLESLELYLAFSRGTSAEEVKRWQDGFAAIKKDGTFKRIYNKWLPRDAPPMEMKLLGVPPGTAR”, the protein production result is “failed”. Turning to “MLDATTRSGGTATATPRATATDLTVATAAAAAGVTAPGAAVAVPTGFTARCTRVLLSPWSRLSLLVALLAAAASSVLLFEPQKLLAHGWPPQLGGAAAAVVFAVAYGLCTVAFVPRPLLNLAAGALFGSQWGTGTALAGTVLGAGVAFGLGRMLGQDALRPLLRGRWLKAVDGQLSRHAFRSMMAARLFPGVPFWAANYCAAVSRMRWVPFLVATALGSIPNTAAYAVAGARASRPTSPAFLIAMGFIAVPALVGAVVAWRKRHHLRGN”, the protein production entry is “failed”. Take “MLDFLAANPLIALVVILAVGLAIGQIRVFGLSLGAAAVLFVALVVSTANTDIVIPMIVYQLGLAMFVYVIGLSAGPAFFSEFAKKGWKLTIFMLLLLATLIGLAWVLIKSLGLDAAIGTGMFTGALTSTPGMAAVVELIEGIDPSLASEPVIGYSLAYPGAVLGSIVVAAVGAKLLKVNHREDARKEGMITAPLVWKGVQLKPGITGRVGDLPRLAGESIIATRIVDDPHTHRLADPDLPITEGMELLINGTEEAVDRAIKALGEERETKIEDTELIYTRLTVSSPEVAGRTVAELDTVAHGFMIARIRQGDSEVVPKPDTVINYSDRIRVVVAPGRVAEVRRFLGDSEKSLADVNLLPLAIGLSLGLLLGAIPIPLPGGTTMSLGFGGGPIIAGLILGALKHTGPLTWQMPFHANRTISTLGLALFLAGVGTSAGAGFRAALTDSSSLIYMAGGLVITLASALLCAVIGMWVLRLRWDEAMGVAAGTTTNPAIISYLNGQTGTDLANRGYATVYPTAMIGKILGAQILFLLL”: the protein production entry is “failed”.

For the sequence “MLDFYALEDLLTPEEKEVQKAARRFLEKEALPHIRDWWEEGVFPTHLIPRFAELGFLGPTLPPEYGGAGVSSAAYGLICYELERVDSGLRSFVSVQSSLVMYPIYAYGSEEQKREFLPKLARGEMVGCFGLTEPDGGSDPYGNMKTRARREGDTWVLNGTKMWITNGNLAHLAVIWAKDEGGEVLGFLVPTDTPGFQAREVKRKMSLRASVTSELVLEEVRVPESLRLPKALGLKAPLSCLTQARFGIAWGAMGALEAVYEEAVAFAKSRSTFGEPLAKKQLVQAKLAEMLAWHTEGLLLAWRLARLKDEGKLTPAQVSLAKRQNVWKALQAARMARDILGGSGITLEYHAIRHMLNLETVYTYEGTHDVHTLVLGREITGLNAF”, the protein production entry is on record as “not failed”. As to “MLDGQSCPLCPSRSSLPAGTSFHQSPMDIVTRTFEAPRTYRPSASVLGRAVRAWTNDRLRGEALYLVAMTGLTILLLMAHYLGWALLTSALAASQGWEPLFWQTQVGSVLVLAGLGLVGFRPAVRVTCRPDAVTLRQGDQTRTLSPPDIQDVRLISAQRYHRHYRRYAATQVFASAVSEQVLCVRTGDGPVIVALPGPEARAALLEHLEALTASASEAAARP”, the protein production result is “failed”. As to “MLDNHDLIVSSVEKNSPAWDAGLTTEDVIVAIDGLRLLDNELDNRLKDFKPKQTITVTYFRRDKLITSRLKLAAIPKNKLKIIPIAKASVLEHHHHHH”, the protein production entry is “not failed”.
